The labels stand for the following.
B1: SERPINA5 (protein, UniProt P05154 26-406, looked up)
Plasma serine protease …: EMKKRVEDLHVGATVAPSSRRDFTFDLYRALASAAPSQSIFFSPVSISMSLAMLSLGAGSSTKMQILEGLGLNLQKSSEKELHRGFQQLLQELNQPRDGFQLSLGNALFTDLVVDLQDTFVSAMKTLYLADTFPTNFRDSAGAMKQINDYVAKQTKGKIVDLLKNLDSNAVVIMVNYIFFKAKWETSFNHKGTQEQDFYVTSETVVRVPMMSREDQYHYLLDRNLSCRVVGVPYQGNATALFILPSEGKMQQVENGLSEKTLRKWLKMFKKRQLELYLPKFSIEGSYQLEKVLPSLGISNVFTSHADLSGISNHSNIQVSEMVHKAVVEVDESGTRAAAATGTIFTFRSARLNSQRLVFNRPFLMFIVDNNILFLGKVNRP
B2: VWC2 (protein, UniProt Q2TAL6 28-325, looked up)
Brorin: SPSIPLEKLAQAPEQPGQEKREHASRDGPGRVNELGRPARDEGGSGRDWKSKSGRGLAGREPWSKLKQAWVSQGGGAKAGDLQVRPRGDTPQAEALAAAAQDAIGPELAPTPEPPEEYVYPDYRGKGCVDESGFVYAIGEKFAPGPSACPCLCTEEGPLCAQPECPRLHPRCIHVDTSQCCPQCKERKNYCEFRGKTYQTLEEFVVSPCERCRCEANGEVLCTVSACPQTECVDPVYEPDQCCPICKNGPNCFAETAVIPAGREVKTDECTICHCTYEEGTWRIERQAMCTRHECRQM
B3: BACH1 (protein, UniProt O14867 1-736, looked up)
Transcription regulator …: MSLSENSVFAYESSVHSTNVLLSLNDQRKKDVLCDVTIFVEGQRFRAHRSVLAACSSYFHSRIVGQADGELNITLPEEVTVKGFEPLIQFAYTAKLILSKENVDEVCKCVEFLSVHNIEESCFQFLKFKFLDSTADQQECPRKKCFSSHCQKTDLKLSLLDQRDLETDEVEEFLENKNVQTPQCKLRRYQGNAKASPPLQDSASQTYESMCLEKDAALALPSLCPKYRKFQKAFGTDRVRTGESSVKDIHASVQPNERSENECLGGVPECRDLQVMLKCDESKLAMEPEETKKDPASQCPTEKSEVTPFPHNSSIDPHGLYSLSLLHTYDQYGDLNFAGMQNTTVLTEKPLSGTDVQEKTFGESQDLPLKSDLGTREDSSVASSDRSSVEREVAEHLAKGFWSDICSTDTPCQMQLSPAVAKDGSEQISQKRSECPWLGIRISESPEPGQRTFTTLSSVNCPFISTLSTEGCSSNLEIGNDDYVSEPQQEPCPYACVISLGDDSETDTEGDSESCSAREQECEVKLPFNAQRIISLSRNDFQSLLKMHKLTPEQLDCIHDIRRRSKNRIAAQRCRKRKLDCIQNLESEIEKLQSEKESLLKERDHILSTLGETKQNLTGLCQKVCKEAALSQEQIQILAKYSAADCPLSFLISEKDKSTPDGELALPSIFSLSDRPPAVLPPCARGNSEPGYARGQESQQMSTATSEQAGPAEQCRQSGGISDFCQQMTDKCTTDE
B4: PVR (protein, UniProt P15151 21-417, looked up)
Poliovirus receptor: WPPPGTGDVVVQAPTQVPGFLGDSVTLPCYLQVPNMEVTHVSQLTWARHGESGSMAVFHQTQGPSYSESKRLEFVAARLGAELRNASLRMFGLRVEDEGNYTCLFVTFPQGSRSVDIWLRVLAKPQNTAEVQKVQLTGEPVPMARCVSTGGRPPAQITWHSDLGGMPNTSQVPGFLSGTVTVTSLWILVPSSQVDGKNVTCKVEHESFEKPQLLTVNLTVYYPPEVSISGYDNNWYLGQNEATLTCDARSNPEPTGYNWSTTMGPLPPFAVAQGAQLLIRPVDKPINTTLICNVTNALGARQAELTVQVKEGPPSEHSGISRNAIIFLVLGILVFLILLGIGIYFYWSKCSREVLWHCHLCPSSTEHASASANGHVSYSAVSRENSSSQDPQTEGTR
B5: CNTNAP2 (protein, UniProt Q9UHC6 28-1331, looked up)
Contactin-associated …: APSTSQKCDEPLVSGLPHVAFSSSSSISGSYSPGYAKINKRGGAGGWSPSDSDHYQWLQVDFGNRKQISAIATQGRYSSSDWVTQYRMLYSDTGRNWKPYHQDGNIWAFPGNINSDGVVRHELQHPIIARYVRIVPLDWNGEGRIGLRIEVYGCSYWADVINFDGHVVLPYRFRNKKMKTLKDVIALNFKTSESEGVILHGEGQQGDYITLELKKAKLVLSLNLGSNQLGPIYGHTSVMTGSLLDDHHWHSVVIERQGRSINLTLDRSMQHFRTNGEFDYLDLDYEITFGGIPFSGKPSSSSRKNFKGCMESINYNGVNITDLARRKKLEPSNVGNLSFSCVEPYTVPVFFNATSYLEVPGRLNQDLFSVSFQFRTWNPNGLLVFSHFADNLGNVEIDLTESKVGVHINITQTKMSQIDISSGSGLNDGQWHEVRFLAKENFAILTIDGDEASAVRTNSPLQVKTGEKYFFGGFLNQMNNSSHSVLQPSFQGCMQLIQVDDQLVNLYEVAQRKPGSFANVSIDMCAIIDRCVPNHCEHGGKCSQTWDSFKCTCDETGYSGATCHNSIYEPSCEAYKHLGQTSNYYWIDPDGSGPLGPLKVYCNMTEDKVWTIVSHDLQMQTPVVGYNPEKYSVTQLVYSASMDQISAITDSAEYCEQYVSYFCKMSRLLNTPDGSPYTWWVGKANEKHYYWGGSGPGIQKCACGIERNCTDPKYYCNCDADYKQWRKDAGFLSYKDHLPVSQVVVGDTDRQGSEAKLSVGPLRCQGDRNYWNAASFPNPSSYLHFSTFQGETSADISFYFKTLTPWGVFLENMGKEDFIKLELKSATEVSFSFDVGNGPVEIVVRSPTPLNDDQWHRVTAERNVKQASLQVDRLPQQIRKAPTEGHTRLELYSQLFVGGAGGQQGFLGCIRSLRMNGVTLDLEERAKVTSGFISGCSGHCTSYGTNCENGGKCLERYHGYSCDCSNTAYDGTFCNKDVGAFFEEGMWLRYNFQAPATNARDSSSRVDNAPDQQNSHPDLAQEEIRFSFSTTKAPCILLYISSFTTDFLAVLVKPTGSLQIRYNLGGTREPYNIDVDHRNMANGQPHSVNITRHEKTIFLKLDHYPSVSYHLPSSSDTLFNSPKSLFLGKVIETGKIDQEIHKYNTPGFTGCLSRVQFNQIAPLKAALRQTNASAHVHIQGELVESNCGASPLTLSPMSSATDPWHLDHLDSASADFPYNPGQGQAIRNGVNRNSAIIGGVIAVVIFTILCTLVFLIRYMFRHKGTYHTNEAKGAESAESADAAIMNNDPNFTETIDESKKEWLI
B6: CPM (protein, UniProt P14384 18-423, looked up)
Carboxypeptidase M: LDFNYHRQEGMEAFLKTVAQNYSSVTHLHSIGKSVKGRNLWVLVVGRFPKEHRIGIPEFKYVANMHGDETVGRELLLHLIDYLVTSDGKDPEITNLINSTRIHIMPSMNPDGFEAVKKPDCYYSIGRENYNQYDLNRNFPDAFEYNNVSRQPETVAVMKWLKTETFVLSANLHGGALVASYPFDNGVQATGALYSRSLTPDDDVFQYLAHTYASRNPNMKKGDECKNKMNFPNGVTNGYSWYPLQGGMQDYNYIWAQCFEITLELSCCKYPREEKLPSFWNNNKASLIEYIKQVHLGVKGQVFDQNGNPLPNVIVEVQDRKHICPYRTNKYGEYYLLLLPGSYIINVTVPGHDPHITKVIIPEKSQNFSALKKDILLPFQGQLDSIPVSNPSCPMIPLYRNLPDHS
B7: PAM (protein, UniProt P19021 31-973, looked up)
Peptidyl-glycine …: FKETTRPFSNECLGTTRPVVPIDSSDFALDIRMPGVTPKQSDTYFCMSMRIPVDEEAFVIDFKPRASMDTVHHMLLFGCNMPSSTGSYWFCDEGTCTDKANILYAWARNAPPTRLPKGVGFRVGGETGSKYFVLQVHYGDISAFRDNNKDCSGVSLHLTRLPQPLIAGMYLMMSVDTVIPAGEKVVNSDISCHYKNYPMHVFAYRVHTHHLGKVVSGYRVRNGQWTLIGRQSPQLPQAFYPVGHPVDVSFGDLLAARCVFTGEGRTEATHIGGTSSDEMCNLYIMYYMEAKHAVSFMTCTQNVAPDMFRTIPPEANIPIPVKSDMVMMHEHHKETEYKDKIPLLQQPKREEEEVLDQGDFYSLLSKLLGEREDVVHVHKYNPTEKAESESDLVAEIANVVQKKDLGRSDAREGAEHERGNAILVRDRIHKFHRLVSTLRPPESRVFSLQQPPPGEGTWEPEHTGDFHMEEALDWPGVYLLPGQVSGVALDPKNNLVIFHRGDHVWDGNSFDSKFVYQQIGLGPIEEDTILVIDPNNAAVLQSSGKNLFYLPHGLSIDKDGNYWVTDVALHQVFKLDPNNKEGPVLILGRSMQPGSDQNHFCQPTDVAVDPGTGAIYVSDGYCNSRIVQFSPSGKFITQWGEESSGSSPLPGQFTVPHSLALVPLLGQLCVADRENGRIQCFKTDTKEFVREIKHSSFGRNVFAISYIPGLLFAVNGKPHFGDQEPVQGFVMNFSNGEIIDIFKPVRKHFDMPHDIVASEDGTVYIGDAHTNTVWKFTLTEKLEHRSVKKAGIEVQEIKEAEAVVETKMENKPTSSELQKMQEKQKLIKEPGSGVPVVLITTLLVIPVVVLLAIAIFIRWKKSRAFGDSEHKLETSSGRVLGRFRGKGSGGLNLGNFFASRKGYSRKGFDRLSTEGSDQEKEDDGSESEEEYSAPLPALAPSSS
B8: MEPE (protein, UniProt Q9NQ76 18-525, looked up)
Matrix extracellular …: PTFQPQTEKTKQSCVEEQRQEEKNKDNIGFHHLGKRINQELSSKENIVQERKKDLSLSEASENKGSSKSQNYFTNRQRLNKEYSISNKENTHNGLRMSIYPKSTGNKGFEDGDDAISKLHDQEEYGAALIRNNMQHIMGPVTAIKLLGEENKENTPRNVLNIIPASMNYAKAHSKDKKKPQRDSQAQKSPVKSKSTHRIQHNIDYLKHLSKVKKIPSDFEGSGYTDLQERGDNDISPFSGDGQPFKDIPGKGEATGPDLEGKDIQTGFAGPSEAESTHLDTKKPGYNEIPEREENGGNTIGTRDETAKEADAVDVSLVEGSNDIMGSTNFKELPGREGNRVDAGSQNAHQGKVEFHYPPAPSKEKRKEGSSDAAESTNYNEIPKNGKGSTRKGVDHSNRNQATLNEKQRFPSKGKSQGLPIPSRGLDNEIKNEMDSFNGPSHENIITHGRKYHYVPHRQNNSTRNKGMPQGKGSWGRQPHSNRRFSSRRRDDSSESSDSGSSSESDGD
B9: TXLNA (protein, UniProt P40222 1-546, looked up)
Alpha-taxilin: MKNQDKKNGAAKQSNPKSSPGQPEAGPEGAQERPSQAAPAVEAEGPGSSQAPRKPEGAQARTAQSGALRDVSEELSRQLEDILSTYCVDNNQGGPGEDGAQGEPAEPEDAEKSRTYVARNGEPEPTPVVNGEKEPSKGDPNTEEIRQSDEVGDRDHRRPQEKKKAKGLGKEITLLMQTLNTLSTPEEKLAALCKKYAELLEEHRNSQKQMKLLQKKQSQLVQEKDHLRGEHSKAVLARSKLESLCRELQRHNRSLKEEGVQRAREEEEKRKEVTSHFQVTLNDIQLQMEQHNERNSKLRQENMELAERLKKLIEQYELREEHIDKVFKHKDLQQQLVDAKLQQAQEMLKEAEERHQREKDFLLKEAVESQRMCELMKQQETHLKQQLALYTEKFEEFQNTLSKSSEVFTTFKQEMEKMTKKIKKLEKETTMYRSRWESSNKALLEMAEEKTVRDKELEGLQVKIQRLEKLCRALQTERNDLNKRVQDLSAGGQGSLTDSGPERRPEGPGAQAPSSPRVTEAPCYPGAPSTEASGQTGPQEPTSARA

In this assay the test system is plasma proteins. The assay is described as follows: Plasma proteins modulated between baseline and day 28 in responders (CR, VGPR, PR; n = 19), Example 6 (Table 13). In kind it is in vivo, human. The conditions noted are these: plasma protein (OLINK NPX); responders (CR, VGPR, PR; n = 19); itacitinib 200 mg or 300 mg QD with corticosteroids; day 28 vs baseline. The method in brief: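 Longitudinal comparison, day 28 versus baseline, with steroid-naive (N=10) and steroid-refractory (N=18) patients combined. Proteins measured by OLINK proximity extension, log2 normalized protein expression. Differences tested by t tests, ANOVA, Pearson correlation, P<0.05 significant.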
As for B1, the “Fold Change, Increased Expression from Baseline to Day 28” value (“Fold Change, Increased Expression” below) came out at 1.2683.

For B2, the “Fold Change, Increased Expression” value came to 1.3331.

With B3, the “Fold Change, Decreased Expression from Baseline to Day 28” value (shortened to “Fold Change, Decreased Expression”) is listed as −1.4794.

B4: the “Fold Change, Increased Expression” value worked out at 1.1964.

As to B5, the “Fold Change, Decreased Expression” value is −1.3091.

As to B6, the “Fold Change, Increased Expression” value is on record as 1.1479.

For B7, the “Fold Change, Increased Expression” value worked out at 1.1653.

For the molecule B8, the “Fold Change, Decreased Expression” value was −1.4941.

Regarding B9, the “Fold Change, Decreased Expression” value was −1.5277.
